US6964763B1, “Methods and compositions for inhibiting HIV infectivity and blocking chemokine activity” (priority 1997, dated 2005)

Tests used:
[1] = molecular target: recombinant HIV-1 gp160 (gp120 non-covalently linked to gp41) (Human immunodeficiency virus type 1 group M subtype B, UniProt P03375); details: 10-fold molar excess (0.5 μM) unlabeled competitor, 50 nM 125I-TSP1
Method: Increasing concentrations of soluble ^125I-labeled TSP1 (1 nM-μM) were added to immobilized recombinant HIV-1 gp160 for 3 hours at 22° C., and bound TSP1 measured after extensive washing. Non-linear curve fit was generated with Excell™ version 5.0. Apparent affinity was estimated from Scatchard analysis. (n=2; error calculated as standard deviation, SD).
A fixed concentration of ^125I-labeled TSP 1(50 nM) was added to immobilized rgp 160 in the absence or presence of 10-fold molar excess (0.5 μM) unlabeled TSP1, fusion protein LFP75-155 containing the LIMPII TSP binding domain (aa 75-155), or downstream fusion protein LFP 156-243. Samples were incubated, and bound TSP 1 was measured as in FIG. 2A. Plots represent single data sets of triplicate samples. (n=3, error as SD).
Briefly, TSP1 (5-10 μg/ml) or fusion proteins and peptides (10-20 μg/ml) were immobilized on detachable 96-well microtiter plate strips (Immulon-4 Remov-a-well, Dynatech Laboratories, Inc.), by overnight incubation at 4° C. in carbonate buffer (100 mM Na2CO3/1 mM MgCl2/0.02% NaN3, pH 9.8). Washed wells were blocked with 0.5% bovine serum albumin (“BSA”), then incubated in triplicate with soluble radiolabeled ligand for 2.5 hours at 37° C. After extensive washing in 50 mM Tris pH 7.5, 150 mM NaCl, 0.5% Tween-20 (TBS-Tween), bound radioactivity was quantified by gamma counter. Radiolabeling was performed with Na[^125I] […] Specific activity of Na[^125I] was determined for each experiment, ranging from 0.06-1.0 μCi/μg. Specific binding was determined as quenchable in the presence of excess unlabeled ligand, above background binding to BSA-coated wells.

[2] = system: CD4-gp120 complex formation; assay: Competitive inhibition of 125I-CD4 binding to immobilized gp120; parameters: species or system HIV-1 (MN and LAI isolates); details: 10-fold molar excess (0.5 μM) competitor, 50 nM 125I-CD4, MN and LAI gp120
Method: FIG. 5 is a graph showing competitive inhibition of ^125I-CD4 binding to gp120. […] Samples were incubated, and bound TSP1 was measured as in FIG. 2. A single data set of triplicate samples (η=3, error as SD) is shown.
Radiolabeling was performed with Na[^125I]
These observations support a role for salivary TSP1 as a direct inhibitor of HIV infectivity.

HIV-1 isolate IIIB = assay: HIV-1 infectivity assay, virus pre-incubated with TSP1 or saliva, p24 ELISA day 7; assay type: cell-based
Method: HIV-1 isolate IIIB was pre-incubated in the absence of TSP1, or with various concentrations of purified TSP1 for 1 hour at 37° C. Pre-incubated virus-TSP1 mixtures were added to target cells either directly (−), or first passed through 0.2 μm filters (+). Phorbol myrisate acetate (“PMA”) activated primary peripheral blood mononuclear cells (“PBMC”), SK23 (T-cell line) or U937 (promonocytic line) were inoculated with the multiplicities of infection (“moi”) indicated. After an additional 1 hour at 37° C., infected cells were washed, cultured for 7 days, and HIV-1 p24 antigen measured by ELISA. Inhibition is expressed for a single data set as percent of maximum p24 detected in the absence of TSP1.
PMA-stimulated primary PBMC were infected with 0.02 moi HIV/IIIB that had been pre-incubated with TSP1 alone, or with LIMPII fusion protein LFP75-155 alone or in the presence of TSP1, and filtered prior to incubation as in FIG. 7. TSP-mediated inhibition is expressed as percent decrease in p24 relative to maximum p24 detected in the absence of TSP 1. Data shown represent the average of two independent experiments (error as SD). […]

Molecule | inhibition of 125I-TSP1 binding to gp160 [1] | inhibition of 125I-CD4 binding to immobilized gp120 [2] [%] | abrogation of the inhibitory effect of TSP1 by competitor (HIV-1 isolate IIIB; 1 μM LIMPII peptide, 50-100 μg/ml TSP1, PBMC, 0.02 moi) | decrease of HIV-1 infectivity, peptide alone (HIV-1 isolate IIIB; LIMPII peptide alone, PBMC) [%]
LFP75-155: GST fusion protein containing the LIMPII TSP binding domain (aa 75-155) (protein, left off: a dimerising Fc or GST) ILRGETPRVEEVGPYTYRELRNKANIQFGDNGTTISAVSNKAYVFERDQSVGDPKIDLIRTLNIPVLTVIEWSQVHFLREI | 47±14% | ~89 | – | –
LIMPII peptide: LIMPII TSP-binding peptide, 10 kDa product purified after removal of GST moiety by proteolytic cleavage (protein) ILRGETPRVEEVGPYTYRELRNKANIQFGDNGTTISAVSNKAYVFERDQSVGDPKIDLIRTLNIPVLTVIEWSQVHFLREI | – | – | 83-90% | 9
CFP67-157: GST fusion protein containing the TSP1 binding domain of CD36 (aa 67-157) (protein, left off: a dimerising Fc or GST) IFDVQNPQEVMMNSSNIQVKQRGPYTYRVRFLAKENVTQDAEDNTVSFLQPNGAIFEPSLSVGTEADNFTVLNLAVAAASHIYQNQFVQMI | – | ~89 | – | –
LFP156-243: control GST fusion protein representing downstream LIMPII sequences (protein, left off: a dimerising Fc or GST) IEAMLKAYQQKLFVTHTVDELLWGYKDEILSLIHVFRPDISPYFGLFYEKNGTNDGDYVFLTGEDSYLNFTKIVEWNGKTSLDWWITD | did not | 32±5 | – | –
